Experimental data: patent US20050170334A1

What was measured:
Test in all cases: ELISA, peptide coated, antibody 10 µg/ml
M15 (influenza A virus) = target: M15 (influenza A virus)
M16 (influenza A virus) = target: M16 (influenza A virus)
[1] = target: M2 peptide (extracellular 23-amino-acid M2 peptide) (influenza A virus)
NM15 (influenza A virus) = target: NM15 (influenza A virus)
NM16 (influenza A virus) = target: NM16 (influenza A virus)
NM17 (influenza A virus) = target: NM17 (influenza A virus)

B1: C40G1 (antibody, V domains shown)
VH: QLQLQESGPGLVKPSETLSLTCTVSGGSISSSFYYCGWIRQPPGKGLEWIGSIYYRGSTYYNPSLKSRVTISVDTSKNQFSLKLSSVTAADTAVYYCARRVTMVRGVKGDYFDYWGQGTLVTVSS
VL: DIQMTQSPSSLSASVGDRVTITCRASQGISSWLAWYQQKPEKVPKSLIYAASSLQSGVPSRFSGSGSGTDFTLTISSLQPEDFATYYCQQYNYYPLTFGGGTKVEIKR
- ELISA (OD450) (M15 (influenza A virus)): 2.73 OD450
- ELISA (OD450) (M16 (influenza A virus)): 2.64 OD450
- ELISA (OD450) [1]: 2.56 OD450
- ELISA (OD450) (NM15 (influenza A virus)): 2.51 OD450
- ELISA (OD450) (NM16 (influenza A virus)): 2.37 OD450
- ELISA (OD450) (NM17 (influenza A virus)): 2.41 OD450
